Measured values as given in patent US20090214663A1 (published 2009).

Target: T1, mCAT-1 receptor expressed on HEK 293 cells (stable cell line) (mouse, UniProt Q09143 1-622)
T1 construct: whole, on cells
Assay: fluorescence microscopy, counting of green fluorescent Mo-NP bound per cell after 2.5 h at 37 C; 120 cells per cell line

T1 sequence (Q09143 whole entry): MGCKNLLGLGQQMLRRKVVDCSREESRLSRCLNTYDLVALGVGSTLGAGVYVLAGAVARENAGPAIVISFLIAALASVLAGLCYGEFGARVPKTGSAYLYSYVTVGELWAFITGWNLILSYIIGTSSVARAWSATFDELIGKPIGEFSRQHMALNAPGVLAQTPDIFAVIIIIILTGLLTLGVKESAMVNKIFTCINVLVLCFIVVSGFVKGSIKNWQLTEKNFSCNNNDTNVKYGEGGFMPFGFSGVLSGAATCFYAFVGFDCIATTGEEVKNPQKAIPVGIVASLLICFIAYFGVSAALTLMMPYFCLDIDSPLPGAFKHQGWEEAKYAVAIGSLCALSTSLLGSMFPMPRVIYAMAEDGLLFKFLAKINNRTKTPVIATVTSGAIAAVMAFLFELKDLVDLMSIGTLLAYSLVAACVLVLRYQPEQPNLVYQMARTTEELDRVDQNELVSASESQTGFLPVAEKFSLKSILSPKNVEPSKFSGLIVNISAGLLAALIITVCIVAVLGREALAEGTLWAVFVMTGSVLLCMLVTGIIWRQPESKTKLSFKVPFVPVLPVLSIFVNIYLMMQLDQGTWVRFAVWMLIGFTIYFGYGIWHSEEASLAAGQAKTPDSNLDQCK

B1: Moloney murine leukemia virus (Mo-MLV) envelope protein, in virus membranes coated onto 100 nm carboxylate-modified fluorescent nanoparticles (Mo-NP) (other)
chain: ASPGSSPHQVYNITWEVTNGDRETVWATSGNHPLWTWWPDLTPDLCMLAHHGPSYWGLEYQSPFSSPPGPPCCSGGSSPGCSRDCEEPLTSLTPRCNTAWNRLKLDQTTHKSNEGFYVCPGPHRPRESKSCGGPDSFYCAYWGCETTGRAYWKPSSSWDFITVNNNLTSDQAVQVCKDNKWCNPLVIRFTDAGRRVTSWTTGHYWGLRLYVSGQDPGLTFGIRLRYQNLGPRVPIGPNPVLADQQPLSKPKPVKSPSVTKPPSGTPLSPTQLPPAGTENRLLNLVDGAYQALNLTSPDKTQECWLCLVAGPPYYEGVAVLGTYSNHTSAPANCSVASQHKLTLSEVTGQGLCIGAVPKTHQALCNTTQTSSRGSYYLVAPTGTMWACSTGLTPCISTTILNLTTDYCVLVELWPRVTYHSPSYVYGLFERSNRHKREPVSLTLALLLGGLTMGGIAAGIGTGTTALMATQQFQQLQAAVQDDLREVEKSISNLEKSLTSLSEVVLQNRRGLDLLFLKEGGLCAALKEECCFYADHTGLVRDSMAKLRERLNQRQKLFESTQGWFEGLFNRSPWFTTLISTIMGPLIVLLMILLFGPCILNRLVQFVKDRISVVQAL
notes: Native env in virus membranes released by osmotic shock and sonication, then extruded over nanoparticles; In the β-lactamase experiments the particle core also carried covalently coupled B. cereus penicillinase; also called Mo-nanoparticles; Mo env-coated nanoparticles
fold more Mo-NP bound than by cells lacking the receptor: 26 fold
